Measured values: publication doi:10.1101/2024.09.22.614354 (bioRxiv, 2024)
Read-outs that look alike come from different tables or passages of the source. Where no end group is shown, it is not given here. TMR = tetramethyl rhodamine dye

Columns and labels:
Experiment in all cases: fluorescence polarisation
[1] = biological target: T1, wild type Rb pocket domain (Rb^P) (human, UniProt P06400 380-788)
T1 sequence: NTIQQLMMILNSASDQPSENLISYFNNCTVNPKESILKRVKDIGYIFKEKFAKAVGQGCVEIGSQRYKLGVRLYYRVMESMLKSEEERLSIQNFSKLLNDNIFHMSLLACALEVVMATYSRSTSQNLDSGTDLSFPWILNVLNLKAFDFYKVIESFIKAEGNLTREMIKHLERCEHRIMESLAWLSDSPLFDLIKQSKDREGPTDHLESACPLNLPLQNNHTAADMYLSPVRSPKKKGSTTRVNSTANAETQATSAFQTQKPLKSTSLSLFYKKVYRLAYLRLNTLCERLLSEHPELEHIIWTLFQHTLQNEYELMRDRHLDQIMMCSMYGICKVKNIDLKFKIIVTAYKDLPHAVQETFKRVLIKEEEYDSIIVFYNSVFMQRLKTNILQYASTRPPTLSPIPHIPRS

Rb^P I703F = biological target: T2, Rb^P I703F (human, UniProt P06400 380-788, I703F)
T2 sequence: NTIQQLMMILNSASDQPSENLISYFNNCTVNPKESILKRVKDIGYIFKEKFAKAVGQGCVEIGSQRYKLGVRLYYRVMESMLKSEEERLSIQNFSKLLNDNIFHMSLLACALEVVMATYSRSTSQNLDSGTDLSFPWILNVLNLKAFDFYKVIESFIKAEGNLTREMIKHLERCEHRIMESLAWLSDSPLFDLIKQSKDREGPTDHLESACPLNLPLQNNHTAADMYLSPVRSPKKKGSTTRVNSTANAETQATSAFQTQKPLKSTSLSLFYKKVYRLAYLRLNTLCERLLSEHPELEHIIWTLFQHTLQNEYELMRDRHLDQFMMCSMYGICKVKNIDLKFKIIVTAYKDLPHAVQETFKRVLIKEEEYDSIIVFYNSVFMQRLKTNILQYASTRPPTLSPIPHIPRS

Rb^P M704V = biological target: T3, Rb^P M704V (human, UniProt P06400 380-788, M704V)
T3 sequence: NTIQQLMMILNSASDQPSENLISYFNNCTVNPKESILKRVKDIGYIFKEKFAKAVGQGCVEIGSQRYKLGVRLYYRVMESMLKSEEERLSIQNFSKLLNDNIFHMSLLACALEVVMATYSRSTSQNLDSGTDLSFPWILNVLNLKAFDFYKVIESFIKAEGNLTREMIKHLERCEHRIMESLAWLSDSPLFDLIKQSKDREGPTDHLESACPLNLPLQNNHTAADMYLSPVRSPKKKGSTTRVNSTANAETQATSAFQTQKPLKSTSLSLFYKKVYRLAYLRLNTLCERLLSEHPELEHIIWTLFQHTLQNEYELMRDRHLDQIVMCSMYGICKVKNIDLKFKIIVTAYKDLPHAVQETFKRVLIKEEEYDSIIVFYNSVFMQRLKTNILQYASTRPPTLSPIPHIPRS

Rb^P E554K = biological target: T4, Rb^P E554K (human, UniProt P06400 380-788, E554K)
T4 sequence: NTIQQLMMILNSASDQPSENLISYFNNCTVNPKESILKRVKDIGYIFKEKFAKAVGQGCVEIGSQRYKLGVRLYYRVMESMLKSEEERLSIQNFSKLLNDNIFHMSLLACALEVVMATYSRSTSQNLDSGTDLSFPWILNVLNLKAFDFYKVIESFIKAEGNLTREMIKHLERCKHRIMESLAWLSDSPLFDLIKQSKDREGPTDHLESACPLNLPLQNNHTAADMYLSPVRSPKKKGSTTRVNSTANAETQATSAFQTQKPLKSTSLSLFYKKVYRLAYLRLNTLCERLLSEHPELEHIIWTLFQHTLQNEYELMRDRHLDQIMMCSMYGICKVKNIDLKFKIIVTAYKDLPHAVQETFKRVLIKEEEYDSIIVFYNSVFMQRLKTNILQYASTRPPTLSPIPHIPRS

Rb^P S751Y = biological target: T5, Rb^P S751Y (human, UniProt P06400 380-788, S751Y)
T5 sequence: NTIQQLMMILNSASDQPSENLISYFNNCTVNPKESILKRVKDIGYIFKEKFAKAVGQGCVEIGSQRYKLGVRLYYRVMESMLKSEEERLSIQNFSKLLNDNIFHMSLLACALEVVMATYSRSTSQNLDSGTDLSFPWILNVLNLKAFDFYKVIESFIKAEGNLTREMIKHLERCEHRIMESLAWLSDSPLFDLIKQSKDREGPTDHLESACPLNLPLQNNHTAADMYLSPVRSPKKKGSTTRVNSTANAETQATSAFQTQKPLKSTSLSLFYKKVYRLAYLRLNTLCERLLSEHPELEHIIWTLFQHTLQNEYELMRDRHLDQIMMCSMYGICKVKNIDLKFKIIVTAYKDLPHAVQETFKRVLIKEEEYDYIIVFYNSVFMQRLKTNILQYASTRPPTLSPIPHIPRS

[2] = biological target: T1, wild type Rb pocket domain (Rb^P); remark: listed apart in the source
[3] = biological target: T1, wild type Rb pocket domain (Rb^P); remark: listed apart in the source

{TMR}-GEGIRDLFDCDFGDLTPLD [TMR-E2F1^TD (peptide of the E2F1 transactivation domain, N-labeled with tetramethyl rhodamine)] was tested, and the Kd [1] was 17 nM, the Kd (Rb^P I703F) was 94 nM and the Kd (Rb^P M704V) was 46 nM. It also gave a Kd (Rb^P E554K) of 1740 nM, a Kd (Rb^P S751Y) of 28 nM and a Kd [2] of 22 nM. The Kd [3] was 14 nM.
